Values quoted from earlier work in publication PMC3736882.

Target: Factor VIII (Homo sapiens) (UniProt P00451)
Chain of UniProt P00451 (P00451 760-1332): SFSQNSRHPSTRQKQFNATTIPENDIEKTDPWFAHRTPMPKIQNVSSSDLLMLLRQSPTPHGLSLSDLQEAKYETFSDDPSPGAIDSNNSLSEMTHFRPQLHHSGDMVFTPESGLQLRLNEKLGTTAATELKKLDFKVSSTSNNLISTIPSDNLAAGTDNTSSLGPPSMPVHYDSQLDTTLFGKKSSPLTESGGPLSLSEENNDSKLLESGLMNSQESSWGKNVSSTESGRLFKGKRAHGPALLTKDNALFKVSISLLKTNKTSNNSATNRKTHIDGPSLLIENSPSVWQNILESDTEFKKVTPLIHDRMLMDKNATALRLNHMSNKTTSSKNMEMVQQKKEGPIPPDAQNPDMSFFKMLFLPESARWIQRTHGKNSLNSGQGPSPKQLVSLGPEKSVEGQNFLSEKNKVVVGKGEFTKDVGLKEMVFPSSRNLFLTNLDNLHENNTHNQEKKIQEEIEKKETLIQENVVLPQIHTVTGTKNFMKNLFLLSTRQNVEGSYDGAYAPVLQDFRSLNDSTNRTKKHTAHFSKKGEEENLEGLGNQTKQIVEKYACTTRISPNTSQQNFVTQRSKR

von Willebrand factor (from UniProt P04275)
Kd: < 1 nM
